Test: yeast display, Sf9 membrane polyspecificity reagent, FACS + sequencing; frameworks hold sequencing errors
How it was run: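 After 36–48 hours of galactose induction, yeast (Saccharomyces cerevisiae BJ5465) displaying a synthetic nanobody library were stained at 4 °C for 1 hour with 10% biotinylated, detergent-solubilized Sf9 membrane reagent. Streptavidin microbeads enriched the stained cells before FACS sorting into low and high (top ~1%) gates on anti-HA and streptavidin fluorescence. Each clone's polyreactivity label reflects its gate of origin.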

Sequence | polyreactivity (PSR sort gate)
QVQLVESGGGLVQAGGSLRLTCAASGRIIGFNAMGWYRQAPGKERELVASIRTTGGTTYYADSVKGRFTISSDNAKNTVYLQMNSLKPEDTAVYYCAARRYPPRMDYWGQGTQVTVSS | high polyreactivity
QVQLVESGGGLVQAGGSLRLTCAASGRTFRLYAMGWYRQAPGKERELVAAITRGGRTNYADSVKGRFTISRDNAKNTVYLQMNSLKPEDTAVYYCAARYVDRHTDYYYWGQGTQVTVSS | low polyreactivity
QVQLVESGGGLVQAGGSLRLTCAASGRTFVENAMGWYRPATGKERELVAAITYSGGGTYYADSVKGRFTISRDNAKNTVYLQMNSVKPEDTAVYDCAATIPYSLDGYDYWGQGTQVTVSS | low polyreactivity
QVQLVESGGGLVQAGGSLRLTCAASGRTFYWNVMGWYRQAPGKERELVAITTSGGSTYYADAVKGRFTISRDNAKNTVYLQMNSLKPEDTAVYYCAAQWRSYYDQYGYDYWGQGTQVTVSS | low polyreactivity
QVQLVESGGGLVQAGGSLRLTCAASGRTLYRYAMGWYRQAPGKERELVAAITNGGSTKYADSVKGRFTISRDNAKNTVYLQMNSLKPEDTAVYYCYAVVNFILLRIYYGQLYNYWGQGTQVTVSS | low polyreactivity
QVQLVESGGGLVQAGGSLRLTCAASGSIFDRNAMGWYRQAPGTERELVAAITYRSGGTYYADSVKGRFTISRDNAKNTVYLQMNSLKPEDTSVYYCNKGYRRYKGYDYWGQGTQVTVSS | high polyreactivity
QVQLVESGGGLVQAGGSLRLTCAASGSIFEGNAMGWYRQAPGKESELVASISGDGSTNYADSVKGRFTISRDNAKNSVYLQMNSLKPEDTAVYYCNADTISEPGFHMDYWGQGNQVTVSS | low polyreactivity
QVQLVESGGGLVQAGGSLRLTCAASGSIFPGYAMGWYRQAPGKDRELVATITASGGSTYYADSVKGRFTISRDNAKNTVFLQMISLKPEDTAVYDCAKDRYWYFRRRGQYDYWGQGTQVTVSS | high polyreactivity
QVQLVESGGGLVQAGGSLRLTCAASGSIFQPNMGWNRHAPGKERELVASITTGTTKYADSVKGRFTISRDNAKNTVYLQMNSLKPEDTAVYYCAADLQATVYLIFGYWGQGTQVTVSS | low polyreactivity
QVQLVESGGGLVQAGGSLRLTCAASGSIFRVYAMGWYRQAPGKERELVAVISIAGRTNYADSVKGRFTISRDNAKNTVYLQMNSLKAEDTAVYYCNAGGVGVATGYDYWGQGTQVTVSS | low polyreactivity
QVQLVESGGGLVQAGGSLRLTCAASGSIFTFYAMGWYRQAPGKERELVADISFSDVSTYYADSVKGRFTISRDNAKNTVYLQMNSLKPEDTAVYYCAARPYVVSQYFDGVEFYYWGQGTQVTVSS | low polyreactivity
QVQLVESGGGLVQAGGSLRLTCAASGSIFVSYARGWYREAPGKERELVAAITSAGTPYYADSVKGRFTISRDNAKNTVYLQMNSLKPDDTAVYYCNTDASLKRTRVSPETEYGYWGQGTQVTVSS | low polyreactivity
QVQLVESGGGLVQAGGSLRLTCAASGSIFWYNAMGWYRQAPGKERELVAAIKWSGGSTFYADSVKGGFTISRDTAKNNVYLQMNSLKPEDTAVYYCNAPPLYRDEFWGQGTQVTVSS | high polyreactivity
QVQLVESGGGLVQAGGSLRLTCAASGSTFFYYAMVWYIHAPGKERELVAAITVRGTSTYYADSVKGRFTISRDIAKNTVYLQMNSLKPEDTAVYYCNTLQPYLYDYWGQGTQVTVSS | high polyreactivity
QVQLVESGGGLVQAGGSLRLTCAASGSTFGDYDMGWYRQAPGKERELVAAISNGGSTYYADSVKGRFTISRDNAKNTVYFQMNSLKPEDTAVYYCNADNVEIRSTYEYGRYLYGYWGQGTQVTVSS | low polyreactivity
QVQLVESGGGLVQAGGSLRLTCAASGSTFRKNVMGWYRQAPGKERELVARISNSGGSTNYADSVKGRFTISRDNAKITVYLQINSLKPADTAVYNCNARKYTNHATYDYWGQGTQVTVSS | high polyreactivity
QVQLVESGGGLVQAGGSLRLTCAASGSTFVINVMGWYRQAPGKERELVAAISNGGRTYADSVKGRFTISRDNAKNTVYLQMNSLKPEDTAVYYCAADVSFTQSDGRLAEYGYWGQGTQVTVSS | low polyreactivity
QVQLVESGGGLVQAGGSLRLTCAASGSTFWDNAMGWYRQAPGKERELVAAITAIGGTTYYADSVKGRFTISRDNAKNTVYLQMKSLKPEDTAVYYCAAVWSRFLISYSTGWWFEYWGQGTQVTVSS | low polyreactivity
QVQLVESGGGLVQAGGSLRLTCAASGSTFYHNAMGWYRQAPGKERELVAAITTSGGSTYYADSVKGRFTISRDNAKNTVYLQMNSLKPVDTAVYYCNVYRPYLAPYDYWGQGTQVTVSS | low polyreactivity
QVQLVESGGGLVQAGGSLRLTCAASGSTLDYYAMGWYRQAPGKERELVAAITQSGASTYYADSVKGRFTISRDNAKNPVYLQMNSLKPEDTAVYYCAAEDYTIYGGEYDYWGQGTQVTVSS | low polyreactivity
QVQLVESGGGLVQAGGSLRLTCAASGSTLKSYAMGWYRQAPGKERELVAAITRSGARTYYADSVQGRFTISRDNAKNTVYFQMNSLKPEDTAVYYCNRVGYQYGSDQEDDYWGQGTQVTVSS | high polyreactivity
QVQLVESGGGLVQAGGSLRLTCAASGSTLRYYAMGWYRQAPGKERELVAAISTGGSTYYADSVKGRFTISRDNAKITVYLQINSLKPEDTAVYYCAAEKKTKTYRYDYWGQGTQVTVSS | low polyreactivity

Sequence | polyreactivity (PSR sort gate)
QVQLVESGGGLVQAGGSLRLTCAASGYTFLHYAMGWYRQPPGKERELVAAITHSGTRTYYADSVKGRFTISRDNAKNTVYLQMNSLKPEDTAVHYCAARGYGKYDYWGQGTQVTVSS | high polyreactivity
QVQLVESGGGLVQAGGSLRLTCAASGYTLGYNAMGWYRKAPGKEMELVAAITIDGSTTYADSVKGRFTISRDNAKNTVYLLMNSLKPEDTAVYYCNAEGFTSDPYDSDYWGKGTQVTVSS | low polyreactivity
QVQLVESGGGLVQAGGSLRLTCAASVFTWSYAMVWDRHATGKERELVATISDGVSTNYSDSVKGRFTISRDNAKNSVYLQMNSLKPEDTAVYYCAVRVSGPRGYDYEYWGQGTQVTVSS | low polyreactivity
QVQLVESGGGLVQAGGSLRLTCAAYGRIFRYYPMGWYRQAPGKERDLVAAINWRGTSTSYADSVKGRFTISRDIAKNTVYLQMNSLKPEETAVYYCARVAWSESDWQKMDYWGQGTQVTVSS | high polyreactivity
QVQLVESGGGLVQAGGSLRLTCADSGFIFYRYAMVWYRQAPGKERELVAAISTRGGSTFYADSVKGRFTISRDNAKNTVYLQMNSLKPEDTAVYYCATGPLRAYDYWGQGTQVTVSS | high polyreactivity
QVQLVESGGGLVQAGGSLRLTCAPSGFIFTPNAIGWYRQAPGKERELVAAISRGGGSTYYADSVKGRFTISRDNAKNTVYLQMNSLKPQDTAVYYCNARSKNGGTTFGYWGEGTQVTVSS | high polyreactivity
QVQLVESGGGLVQAGGSLRLTCDASGRTFYQNTMGWYRQAPGKERELVAAISYRVGRTYYADSVKGRFSISSDNAKNTVYLQMNSLKPEDTAVYYCAAGVWWWTIPYEYWGQGSQVTVSS | high polyreactivity
QVQLVESGGGLVQAGGSLRLTCPASGTIFWNYAMGWYRQAPGKERELVAAISFSGGSTYYADSVKGRFTISRDNAKNTVYLQMNSLKPEDTAVYYCNADYSYVGEYDYWGQGTQVTLSS | low polyreactivity
QVQLVESGGGLVQAGGSLRLTCSASGSTFYYYAMGWYRQAPGKERELVAAITISGGSTYYADSVKGRFTISRDKAKNTVYLQLNSLKPEDTAVYYCNVDDRETRDDYWGQGTQVTVSS | low polyreactivity
QVQLVESGGGLVQAGGSLRLTGAASGRIFRSYAMGWYRQAPGKERELVASISGSTTYYADSVKGRFTISRDNAKNTVYLQMNSLKPEDTAVYYCAVKYDAWGYGYRHFDYWGQGTQVTVSS | low polyreactivity
QVQLVESGGGLVQAGGSLRLTSAASGSIFRYYTMGWYRHAPRKERELVAAISRNGGSTYYADSVKGRFTISRDNAKNSVYLQMNSLKPVDTAVYYCNADGGDWFGYVGMDYWGQGTQVTVSS | high polyreactivity
QVQLVESGGGLVQAGGSLRLTSAASVSTFYNYAMVWYRQAPGKERELVASMTWNGGSTYYADSVKGRFTISRDNAKNTVDLQMTSLKPEDTAGSYCAAEYRDQYPTYPYYRPGYDYWGQGTQVTVSS | low polyreactivity
QVQLVESGGGLVQAGGSLRLTSAGSGFTFTIYAMGWYRQAPGKERELVATISGRAGRTYYADSVKGRFTISRDNAKNTVYLQMNSLKPEDTAVYYCNAGQWRYPGLYYYWGQGSQVTVSS | high polyreactivity
QVQLVESGGGLVQAGGSLRLTSDASGFTFRSNAMGWYRQAPGKERELVAAITSRGGSTYYADSVKGRFTISRDYAKNTVYLQMNSLKPEDTAVYYCAADGRSRKFDYWGQGTQVTVSS | high polyreactivity
QVQLVESGGGLVQAGGSLRSSCASSGSIFDGNTMGWYRQAPGKERELVAAISYSGGSTYYADSVKGRFTISRDNAKNTVYLQMNSLKPEDTAVYYCAAEWYGYQEDDYWGQGTQVTVSS | low polyreactivity
QVQLVESGGGLVQAGGSLRVCCAASGRIFGNYAMGWYRQAPGKDRELVAAISGGGSTYYADSVKGRFTISRDNAKNTVYVQMNSLKPEDTAVYYCAAKPTYRGYGYGSWGQGTQVTVSS | low polyreactivity
QVQLVESGGGLVQAGGSLRVSCAASGFIFSYNAMGWYRQEPGKERELVAAMSSGGGSTYYADSVKGRFTISRDNAKNTVYLQMNSLKPEDTAVSYCAARVAYTFGYWGQGTQVTVSS | high polyreactivity
QVQLVESGGGLVQAGGSLRVSCAASGFIIIGYVMGWYRQSPGKERELVAAITSSGGSTYYADSVKGRFTISRDNAKNTVYLQMNSLKPEDTAVYYWNADIYISPLVQVSKGYDYWGQGTQVTVSS | low polyreactivity
QVQLVESGGGLVQAGGSLRVSCAASGFSFKYYAMGWYRQAPGKERELVAAITKRGGSTYYADSVKGRFTISRDNAKNTVYLQLNSLIPEDTAVYYCAADGRAYERYDYRSDYWGQGSQVTVSS | high polyreactivity
QVQLVESGGGLVQAGGSLRVSCAASGFTFHKYAMGWYRQAPGKDRELVAVISQSASSTYYADSVKGRFTISRDNAKNTVYFQMNGLKPEDTAVYYCNAKYYRYNRRNYWGQGTQVTVSS | high polyreactivity
QVQLVESGGGLVQAGGSLRVSCAASGFTFRGYAMGWYRQAPGKERELVAAIRRGVITNYADSVKGRFTISRDNAKNTVYLQMHSLKPEDTAVYYCAAGNITPYRYYHGYYQSIYDYWGQGTQVTVSS | low polyreactivity

From the nanobody polyreactivity screen of Harvey et al. (2022)
